Data published in the DeepSol protein solubility set.

Test: soluble on expression in E. coli; label from the status in PepcDB or PDB records

Row | Sequence | soluble on expression in E. coli
1 | SEWLKSTDYGKYEGLTKNYMDYLSRLYEREIKDFFEVAKIKMTGTTKESKKFGLHGSSGKLTGSTSSLNKLSVQSSGNRRSQSSSLLDMGNMSASDLDVADRTKFDKIFEQVLSELEPLCLAEQDFISKFFKLQQHQSMPGTMAEAEDLDGGTLSRQHNCGTPLPVSSEKDMIRQMMIKIFRCIEPELNNLIALGDKIDSFNSLYMLVKMSHHVWTAQNVDPASFLSTTLGNVLVTVKRNFDKCISNQIRQMEEVKISKKSKVGILPFVAEFEEFAGLAESIFKNAERRGDLDKAYTKLIRGVFVNVEKVANESQKTPRDVVMMENFHHIFATLSRLKISCLEAEKKEAKQKYTDHLQSYVIYSLGQPLEKLNHFFEGVEARVAQGIREEEVSYQLAFNKQELRKVIKEYPGKEVKKGLDNLYKKVDKHLCEEENLLQVVWHSMQDEFIRQYKHFEGLIARCYPGSGVTMEFTIQDILDYCSSIAQSH | soluble
2 | MSLRLSKTLCMAILAGSTLLAPNALMAMGGPSRVKIDWQIQGQMGMIKMNPYGLSPLTAIIMNNGYVLSDIKKNQMVKLFLNNVNSKMAKTYGGIPIFGLYPSYSKGKVSYTKTANGKSQKVIDEIYKITTPWASIEPSGRTDQRGTLFENVKVLKMDPKFSDRLYLVNNAPGKQSGKDSQSVWNNLVGGAMEWDENSNVFIIDTKGEIRWYYDNNKLMNWGNIYNRGIMISFRQNKDGALTWGFGQRYVKYDCLGREIFNRKLPAVYIDFSHAMDNMQNGHYFFNKYFASLRPDSKHVRTVCDTIIEVDENGNVVDDWRLYKILDPYRSTIIKTLDQSAVCLNIDASKVGKTLSDEELAKMDESDKFGDIAGIGRNWAHAYKGWNKEFQKYLLQPVDKNGNEWFYPVTSLTQYEPDKDSIMVYSATLEWLLILVKVSLGEPKPKIDEFNWGAKEPSVQIQFSGSGTDYQAMPFSVDQAFNPKEGHHHHHH | not soluble
3 | MAHYKAADSKREQFRRYLEKSGVLDTLTKVLVALYEEPEKPNSALDFLKHHLGAATPENPEIELLRLELAEMKEKYEAIVEENKKLKAKLAQYEPPQEEKRAE | soluble
4 | MKHTTKQMEILSDIRTLLHKKEEHLKRQNEKFLRETGVSSMSLSELHVIECIGKNGLMNVTAITTEMGMTKGAISKICTKLFQKQFVEKLQMLDNQKEIFFSLTESGNEIYKAHEKLHKQAEEKWLLLLDGYTKEEQDFIQRFIKDVSGHLEI | not soluble
5 | MANAYKQAGVDIEAGYEAVSRMKKHVQTTMRKEVLGGLGGFGGMFDLSKFALEEPVLVSGTDGVGTKLMLAFMADKHDTIGIDAVAMCVNDIVVQGAEPLFFLDYIACGKAEPSKIENIVKGISEGCRQAGCALIGGETAEMPGMYSTEEYDLAGFTVGIVDKKKIVTGEKIEAGHVLIGLASSGIHSNGYSLVRKVLLEDGELSLDRIYGRLELPLGEELLKPTKIYVKPILELLKNHEVYGMAHITGGGFIENIPRMLPEGIGAEIELGSWKIQPIFSLLQEVGKLEEKEMFNIFNMGIGMVVAVKEEDAKDIVRLLEEQGETARIIGRTVQGAGVTFNGGKAL | soluble
6 | MRVVALVPGGIGDQILFFPTLDDLKRYYPNAQLDVVVEPRSKAAYRVSKSVNDILTFDYKDRNSLADWGNLVGTIRDREYDVVITVGQSWLVGLFLWLTGIPTRIGYQGKGRSFLTKTVPFKPSQYAAAVYHDLLAPIGITTPTPELAVNVPKPDIDWANSEQKRLGVNETGYVLIYGGSSWVSQPQALETIYPAENWQEIIQDFRQKQPDLPVVVIQGPDDEQFVRSLRDYSLDIKVTSPDNVGKLTAMIAGANLMLTTDSAPLHLSVAVQTYTIALFGSTDPVKLLPNSDKLLGIKSSTGRVADILPKAVLEKVWGGLEHHHHHH | not soluble
7 | QKDFSWNASLLYAFNRNKVKHISVQPSLWDSRISMPTSYPMVGKPLYGIYAYKWAGLNENGDPQVYDAENNVTSGPARDYHALVYCGTTVPIHNASLTNVLRYKGFEFSAMLILDAGHKLRSSNIPSINMSNGRITSTAKGIVDRWTQPGDVTDVPRLLFSNDTENFNTHRTELYRYSDLFVYDASNIRLSNISLAYRVPAHWCKKISLSGARLQFNVENVATFAFDSKANYDLGGKVKPNYVWGLYLNF | not soluble
8 | MVEARSRHEFVALQLRQRIMQRQYAVGESLPSESMLCAEFEVSRGPVRQALATLKNEGLIQLSQGKPAVVRSHDITQTLDTFTPFSQWARRTGRVAGSRTLEISRRRVSEPAASALGSAPDDFVVEVLRVRLLDGEPTMIERSTFTDRVGSLLFDFDIDTGSITDYLTSRGVRFESMEHVLDAVAATGVDAENLRIDPGSPLLRERRTSRDQNGDTFEYADDRYRPDLVAFSIVNARTIDPRLPSDDGNGA | not soluble
9 | MTSFSLIATAAMGLESVVAEEVRRLGYECQVENGKVTFEGDALAICRANLWLRTADRVKLKVGEFRATTFEELFEQTKALPWADYLPKDAEFPVIGKSVKSTLFSVSDCQAIVKKAVVESLKARYHLSWFPETGPLYRIEVALHKDIATLTIDTSGAGLHKRGYRARQGEAPLRETLAAALVLLTNWTPDRPFVDPFCGSGTIAIEAALIGQNIAPGFNRDFVSEQWPWIGESVWEEARQEAEQMARYDQPLDICGIDLDPHMVEIAKMNAAEAGLSDLISFREGRAEQFRTDAQYGVIVGNPPYGERLGEQREVEALYRAIGRAFAALDTWSVYILTAHRGFETHYGRPATKRRKLFNGFIETHYYQYWGPRPPREARS | not soluble
10 | MSNHQKRLSVPNSWPVERKTATFTVKAGAGPHGESGVPLLIVLRDVLGYADNRKEARYALNEDNVLINGKAISDEERPVGMFDILAFTEREEYYRVFPGEGGRLALTAIDPDAAQSKLGKIVTKTHVSGGDVQLGLHDGETLIVEDDQTYDAGDSIVVGNEDGEVVAHFEYEEGALVTAVDGAHAGEVGEVEEIQVTPGSAQNNVIVSQDEGEGFETVEEYVVVIDENFTGDDELEHHHHHH | soluble
11 | MAHHHHHHMNIFKNIYNTEMMSNNNTVDVNMMDNNPAARLEELRTIMKKNKIDVYILINSDEHNSEIINEKDKKIVKITNYSGADGILIVTKDKPILYVNALYELQAMNELDQNLFTLRISRIDNRDEIFETISSLEFNTIAFDGKNTSVVFYEKLRKALLNAYPKKKIVEKIIYNNNFDDVNKKDDENVLNFLVLEKSLVEIKDYPVNNKTLYIHDRKYNGACAGEKIDKLKQSLMYDIKNVDNLLLSELDEIAYLLNLRGYDYQYSPLFYSYLLFQFDREEQDFSKIVFFTTVKNLPADVKNLLEINKVIVKEYEEIVPYLRDVVIPSIPKHNDDNPDFKKYDISLSPYINLMIYKLFDRKNVLLQNSPVVKMKAVKNDVEIDNMKQAHILDGLALLQFFHWCEQKRKTKELFNETEMSLRHKVDYFRSTKKNFIFPSFSTISASGPNAAVIHYECTDKTNATIKPAIYLLDSGGQYLHGTTDVTRTTHFGEPTAEEKRIYTLVLKGHLRLRKVIFASYTNSSALDFIARENLFNNFMDYNHGTGHGVGLTLNVHEGGCSIGPVGGAPLKKNMVLSNEPGYYMKDKFGVRIENMQYVISKEITDTTEYLSFDDLTMYPYEKKLLDFSLLTNQEIKELNEYHTTIRNTLLPLVKQSPQEYGESVEKYLIEITEPIAIHNN | soluble
12 | MRRVQSNTLDVGIDVHLKNWSTAILSKHSVLRRFLQVDCEGPTLISYIVAKHLAHASRGTISPYRTNGSAYGGFAIYMYLLIKMR | not soluble
13 | MKILILGGRFGGLQTAYDLRRYLKNKADIKIIEKNRYIYFRPALPHVGIGLERAEDLRIDLAQVLPDRGIGYIQGTVTKIDPERSLVEYSREGSGGYKEKYDFLVIALGAHLASELIAGFDKYGSSVCEADLAENMWKKLRDFKGGNITLGSAKFIQDTKNRPTNTPDRYAPIADSACEGPVFEMSIMLYDYFKARNMLDKVKMTVYSPGEYLSDLSRTSRSTVAAMYKGMNIELVDNFVVKEVTEKEVISEDGRRLPSDISFILPPYTGQKLVKDAGLGDDVGFVLTGTDMKSVKYDNVYAVGDVNALIVPKMAFLAVKTARIVAANIANRLGMSIPVEVYDPKIVCVADSPYGNYAVAVTDSTFYGGNVSEAIPSPANHLKKTLFTRYFLWSKGDLAMDKYLTSWLEHHHHHH | not soluble
14 | MGSDKIHHHHHHMEGKKTTQEEYQKCVNAVVDYINLHLGEEIDLKSLARISHFSPFYFHRIMKAFLGEPIGTFIVRTRTEAAARLLRYSSTSISDIAYRIGYASPSSFSKIFKQMYGISPTEYRNNKNYVIMKPAIIKPDLELKKEIRELPQRNVIYIRLFGDYKLNDYAGTWMHLIQFVKEQNLPMGDPSPLCIYHDDPKVTPTDKLRTDVCMLLPSNARPKGNVGFKQLPAGRYATFLYKGSYDQLQAVYDTIYGKYLPEMECTLSDEPSAERYLNDPSCTPPEELLTEIYIPIR | not soluble
15 | MTIYLVRHGESKSNYDNKHFRSYFCGQLDVPLTDTGTKSADDLCDYFKEKQIKHVYVSDLLRTQQTFEHIFPYDIASTTTPLLRERSLGVFEGEYKDEISANPKYEKYFNDPNFKDFRHSFSQKAPEGESYEDVYQRVEHFMNHVVNEDTQKDDIVIVAHQVVIRCLMVYFNKVSRAEAVDLKVENCKPYIIE | not soluble
16 | AVSGLYSSSDDVIELTPSNFNREVIQSDGLWLVEFYAPWCGHCQRLTPEWKKAATALKDVVKVGAVNADKHQSLGGQYGVQGFPTIKIFGANKNKPEDYQGGRTGEAIVDAALSALR | soluble
17 | AHHHHHHGSKARGRAWKYGDNIDTDVIIPARYLNTSDPKELAQHVLEDLDPEFRYKMKPGDIIVAGENFGCGSSREHAPLAIKAAGVSAVIAKSFARIFYRNAINIGLPILEAPEAVERIETGDEIEIDFSTGEIRNLTKGEVYHANPFPEFIMEIIKAGGLVEWAKRRLAK | soluble
18 | MTENNKLQTIEQQLVQEKNVSDNVLNKVRVLESQGNLELPNDYSPSNAMKQAWLQISQDNKLMSCNDTSKANALLDMVTQGLNPAKNQCYFIPYGNKMQLQRSYHGNVMMLKRDAGAQDVVAQVIYKGDTFKQEMGETGRIKAIKHEQDFFNIDKENIIGAYCTIVFNDGRDNYIEVMTIEQIKQAWMQSSMIKDEKALQNSKTHNNFKEEMAKKTVINRAAKRYINTSTDSNLFKYAQESEQRQRKEVLDAEVEENANQEQLDFEQPVLEEAQYTELENDKPIDVSDFEEIKEPATEKESEEEPF | not soluble
19 | MLGIYVLSVDRQSPFAQALKVGDTVTEVNGHHFNSMTGYQRYIQRQKVGQRATITYQRNGKTHHVTAKLMRLPTKKAGIGITLEHHHHHH | not soluble
20 | MDKYHSMKELQNETIENEDWEIITEDRDSNVTILAIHGGGIEPATTELARVIANDGQFNYFAFNGMRTKGNNELHVTSINYDNDIAMDLVKTSESAITIHGCLGEDEIAYIGGKDNLLKERIVEELSQIGIEVKEAPSHMSGTQDNNIVNCTKNGVGVQIELTSSLRKSLFKNNKFNRKSRMDESNWDDKMYDFGQAINSAINLEHHHHHH | soluble
21 | MAHHHHHHMLPFSYRVLMRGVSAVSGALSVALQHRALAGTTRSFSSSRPVWLAPAAPTKQAPPAMGGDTDAEETHPDFQPRMVSSDLAQDEIAMIKKDIDDTIRDEDVVVFIKGVPEAPMCAFSKRMIDVMEALGVEYTSFDVLAHPVVRSYVKEVSEWPTIPQLFVKGEFAGGVDIILKMAESGDLQMLLDQKSIKHRDTKP | soluble
22 | MGHHHHHHGSDSEVNQEAKPEVKPEVKPETHINLKVSDGSSEIFFKIKKTTPLRRLMEAFAKRQGKEMDSLRFLYDGIRIQADQAPEDLDMEDNDIIEAHREQIGGDSEVNQEAKPEVKPEVKPETHINLKVSDGSSEIFFKIKKTTPLRRLMEAFAKRQGKEMDSLRFLYDGIRIQADQAPEDLDMEDNDIIEAHREQIGGMFMAKITGSVVSTKKEDSLTGKKLMIVQPIDANGEHVRSEEVACDSVGAGIGEYVLVARGNAARSVFAEPNSAIDSAIIAIVDSFDK | soluble
